According to article PMC7542843 (ACS Omega, 2020):

Assays:
[1] = biological target: EGF (Homo sapiens) (UniProt P01133); details: cited from earlier work
[2] = biological target: biotinylated HER3 extracellular domain (ECD) (UniProt P21860 20-643, biotin on the C-terminal BirA biotinylation site); assay: ELISA
biotinylated HER3 extracellular domain (ECD), sequence (P21860 20-643): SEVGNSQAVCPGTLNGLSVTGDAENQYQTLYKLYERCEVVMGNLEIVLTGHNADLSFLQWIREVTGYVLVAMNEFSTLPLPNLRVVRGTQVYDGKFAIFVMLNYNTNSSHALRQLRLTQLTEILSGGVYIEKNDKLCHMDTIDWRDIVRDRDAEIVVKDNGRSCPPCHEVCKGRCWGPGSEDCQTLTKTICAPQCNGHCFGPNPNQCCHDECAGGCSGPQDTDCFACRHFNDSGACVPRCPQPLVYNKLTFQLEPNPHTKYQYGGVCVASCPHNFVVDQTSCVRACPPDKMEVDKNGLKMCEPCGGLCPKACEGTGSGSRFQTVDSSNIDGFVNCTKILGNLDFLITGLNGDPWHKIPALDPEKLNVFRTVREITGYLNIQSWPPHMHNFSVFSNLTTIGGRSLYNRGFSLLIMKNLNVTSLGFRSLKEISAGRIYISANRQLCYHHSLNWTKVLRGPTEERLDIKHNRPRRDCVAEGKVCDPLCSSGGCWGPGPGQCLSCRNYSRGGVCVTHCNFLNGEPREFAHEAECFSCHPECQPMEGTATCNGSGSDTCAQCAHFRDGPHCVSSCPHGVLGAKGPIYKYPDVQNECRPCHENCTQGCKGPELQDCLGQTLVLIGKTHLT

EGF (Homo sapiens), sequence (P01133 971-1023): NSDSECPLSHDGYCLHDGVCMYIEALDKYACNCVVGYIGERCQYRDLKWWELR

Molecule	Kd [1] [nM]	Kd [2] [nM]
EGFR (from UniProt P00533)	177	–
Heregulin-β1 (Hrgβ1) (ligand) TSHLVKCAEKEKTFCVNGGECFMVKDLSNPSRYLCKCPNEFTGDRCQNYVMASFYKHLGIEFMEAEELYQK	–	12.6
